We go through one substance from publication doi:10.1101/2020.07.27.221150.

In experiment [1] the target is GNNQQNY, N-terminal hepta-peptide of yeast prion protein Sup35 (yeast).
Experiment [2] has the same target. This is another data set of the same source.

Read-outs that look alike come from different tables or passages of the source.

As for “GNNQQNY, N-terminal hepta-peptide of yeast prion protein Sup35”, the size of the critical nucleus n* was 7.2 monomers in experiment [1] and 6 monomers in experiment [2].
